Values quoted from earlier work in paper PMC7248048.

What was measured:
[1] = target: Fibronectin (Homo sapiens) (UniProt P02751)
[2] = target: Vitronectin (Homo sapiens) (UniProt P04004)
Chain of UniProt P04004 (P04004 399-478): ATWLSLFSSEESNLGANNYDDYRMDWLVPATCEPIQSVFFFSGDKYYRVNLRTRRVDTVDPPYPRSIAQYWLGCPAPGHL

Chain of UniProt P02751 (P02751 32-2477): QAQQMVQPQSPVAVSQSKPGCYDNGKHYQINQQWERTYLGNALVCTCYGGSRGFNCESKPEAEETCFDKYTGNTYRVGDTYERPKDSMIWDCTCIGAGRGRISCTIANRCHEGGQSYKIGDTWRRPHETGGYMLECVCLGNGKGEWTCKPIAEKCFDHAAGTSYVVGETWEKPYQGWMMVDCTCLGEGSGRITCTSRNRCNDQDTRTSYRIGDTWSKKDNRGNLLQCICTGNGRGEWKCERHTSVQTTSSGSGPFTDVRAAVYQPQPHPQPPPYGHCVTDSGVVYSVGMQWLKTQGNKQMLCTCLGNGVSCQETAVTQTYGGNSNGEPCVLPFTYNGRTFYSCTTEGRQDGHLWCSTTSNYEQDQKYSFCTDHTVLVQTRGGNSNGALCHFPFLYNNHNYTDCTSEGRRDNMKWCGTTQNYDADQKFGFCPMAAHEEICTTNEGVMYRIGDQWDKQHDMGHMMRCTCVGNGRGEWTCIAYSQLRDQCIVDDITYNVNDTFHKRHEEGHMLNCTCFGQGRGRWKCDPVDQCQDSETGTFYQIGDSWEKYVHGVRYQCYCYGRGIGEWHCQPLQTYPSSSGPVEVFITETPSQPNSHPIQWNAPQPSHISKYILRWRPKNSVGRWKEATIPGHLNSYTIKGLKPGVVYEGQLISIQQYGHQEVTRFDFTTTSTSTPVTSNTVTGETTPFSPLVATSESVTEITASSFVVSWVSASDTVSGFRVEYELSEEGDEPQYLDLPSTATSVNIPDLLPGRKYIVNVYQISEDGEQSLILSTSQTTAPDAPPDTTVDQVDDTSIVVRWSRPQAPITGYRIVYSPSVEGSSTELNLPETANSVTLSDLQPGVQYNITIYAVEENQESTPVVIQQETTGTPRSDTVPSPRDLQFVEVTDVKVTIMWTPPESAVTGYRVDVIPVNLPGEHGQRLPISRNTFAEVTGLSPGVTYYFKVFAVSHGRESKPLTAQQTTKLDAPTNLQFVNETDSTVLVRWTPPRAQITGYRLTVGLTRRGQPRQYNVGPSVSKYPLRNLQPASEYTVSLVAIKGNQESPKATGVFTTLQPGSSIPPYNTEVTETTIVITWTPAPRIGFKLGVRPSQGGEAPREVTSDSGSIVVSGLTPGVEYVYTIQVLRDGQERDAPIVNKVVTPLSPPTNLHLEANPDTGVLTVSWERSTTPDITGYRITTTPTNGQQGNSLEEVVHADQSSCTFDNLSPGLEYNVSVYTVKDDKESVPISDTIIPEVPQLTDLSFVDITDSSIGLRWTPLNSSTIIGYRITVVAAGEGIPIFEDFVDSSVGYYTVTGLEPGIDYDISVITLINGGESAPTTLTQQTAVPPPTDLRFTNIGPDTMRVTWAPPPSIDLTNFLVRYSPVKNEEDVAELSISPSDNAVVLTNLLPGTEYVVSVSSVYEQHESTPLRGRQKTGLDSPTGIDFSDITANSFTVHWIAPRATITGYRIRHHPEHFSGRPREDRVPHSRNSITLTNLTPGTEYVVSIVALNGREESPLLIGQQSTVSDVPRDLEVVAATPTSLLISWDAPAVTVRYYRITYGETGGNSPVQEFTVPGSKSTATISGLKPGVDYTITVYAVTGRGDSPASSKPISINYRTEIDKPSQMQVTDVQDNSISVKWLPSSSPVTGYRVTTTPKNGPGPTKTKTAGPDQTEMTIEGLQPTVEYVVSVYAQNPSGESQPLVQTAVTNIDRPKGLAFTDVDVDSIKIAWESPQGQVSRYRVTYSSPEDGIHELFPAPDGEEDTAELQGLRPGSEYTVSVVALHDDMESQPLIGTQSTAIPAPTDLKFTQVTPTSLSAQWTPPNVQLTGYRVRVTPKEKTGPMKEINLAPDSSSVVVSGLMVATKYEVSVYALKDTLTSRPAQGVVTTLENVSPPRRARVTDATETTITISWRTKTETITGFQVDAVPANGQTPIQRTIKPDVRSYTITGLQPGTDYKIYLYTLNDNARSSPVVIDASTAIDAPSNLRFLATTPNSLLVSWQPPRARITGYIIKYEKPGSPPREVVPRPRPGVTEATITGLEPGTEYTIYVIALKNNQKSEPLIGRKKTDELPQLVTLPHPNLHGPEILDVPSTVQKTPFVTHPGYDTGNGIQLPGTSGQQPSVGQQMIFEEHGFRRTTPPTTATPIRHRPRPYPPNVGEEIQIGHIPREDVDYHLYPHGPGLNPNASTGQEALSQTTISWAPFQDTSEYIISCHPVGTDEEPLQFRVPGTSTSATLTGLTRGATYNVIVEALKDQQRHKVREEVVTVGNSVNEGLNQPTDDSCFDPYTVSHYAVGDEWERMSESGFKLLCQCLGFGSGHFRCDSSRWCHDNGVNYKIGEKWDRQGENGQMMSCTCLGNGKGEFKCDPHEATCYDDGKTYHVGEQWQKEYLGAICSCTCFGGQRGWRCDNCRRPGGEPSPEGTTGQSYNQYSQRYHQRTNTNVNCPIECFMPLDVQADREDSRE

Substance: Haemophilus lipoprotein e (P4) (from UniProt P26093)
- Kd [1]: 10.2 nM
- Kd [2]: 16.5 nM
